Measurements from IntAct's records for PubMed 33965375.

Biological target: spike_sars2 S (UniProt P0DTC2)

Substance	effect of a mutation on the interaction
Endoplasmic reticulum chaperone BiP (Homo sapiens), P11021 G227D	decreasing interaction strength
Endoplasmic reticulum chaperone BiP (Homo sapiens), P11021 R197H	decreasing interaction strength
